Here are results for one molecule from article PMC10070186, “Unusual peptide-binding proteins guide pyrroloindoline alkaloid formation in crocagin biosynthesis” (Nature Chemistry, 2023).

The target in test [1] is CgnE (Chondromyces crocatus CM c5). Kind of test: MST; microscale thermophoresis of two components; which one was titrated is told only in Fig. 3c.
Test [2] deals with CgnB (Chondromyces crocatus CM c5). The test is described as above.

CgnE (Chondromyces crocatus CM c5), sequence (main, as listed by the source): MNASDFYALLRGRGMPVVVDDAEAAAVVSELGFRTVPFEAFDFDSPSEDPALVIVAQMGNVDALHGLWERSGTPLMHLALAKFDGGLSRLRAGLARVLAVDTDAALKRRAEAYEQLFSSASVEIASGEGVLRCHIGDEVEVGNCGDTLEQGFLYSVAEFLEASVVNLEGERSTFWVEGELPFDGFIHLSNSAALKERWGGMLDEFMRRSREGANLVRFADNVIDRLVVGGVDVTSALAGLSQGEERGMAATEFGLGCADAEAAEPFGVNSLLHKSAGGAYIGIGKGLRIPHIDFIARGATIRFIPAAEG

B1: CgnA, crocagin precursor peptide (peptide)
chain: MKKTIKQISAGDRSKKGNIYW
modifications: not checked
In the case of B1, the equilibrium dissociation constant (Kd) in test [1] amounted to 1.8 µM; in test [2] it was 10.5 µM.
